Experimental findings from patent publication US8026218 are described below.

In assay [1] the target is δ opioid receptor of the mouse isolated vas deferens (mouse) (UniProt P32300). The experiment in a line: cell-based or functional assay.
Assay [2] addresses human δ opioid receptor (human) (UniProt P41143). As to the kind of experiment: cell-based or functional assay.
The target of assay [3] is rat µ opioid receptor (rat) (UniProt P33535). As to the kind of experiment: cell-based or functional assay.
rat µ opioid receptor (rat), sequence (P33535 whole entry): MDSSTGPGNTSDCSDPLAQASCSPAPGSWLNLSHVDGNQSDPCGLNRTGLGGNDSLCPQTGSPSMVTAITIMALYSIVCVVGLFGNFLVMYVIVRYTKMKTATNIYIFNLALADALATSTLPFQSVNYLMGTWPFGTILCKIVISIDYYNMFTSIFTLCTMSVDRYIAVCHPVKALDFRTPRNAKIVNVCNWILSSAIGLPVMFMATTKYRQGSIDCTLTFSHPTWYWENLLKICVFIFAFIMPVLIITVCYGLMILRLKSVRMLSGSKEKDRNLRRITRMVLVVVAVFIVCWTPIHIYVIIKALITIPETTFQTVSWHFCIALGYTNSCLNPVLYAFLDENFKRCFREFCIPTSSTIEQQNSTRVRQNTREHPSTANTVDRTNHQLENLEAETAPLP
The target in assay [4] is human δ opioid receptor (human) (UniProt P41143). The experiment in a line: competition vs [3H]DPDPE, hDOR cell membranes.
human δ opioid receptor (human), sequence (P41143 whole entry, stated change not applied): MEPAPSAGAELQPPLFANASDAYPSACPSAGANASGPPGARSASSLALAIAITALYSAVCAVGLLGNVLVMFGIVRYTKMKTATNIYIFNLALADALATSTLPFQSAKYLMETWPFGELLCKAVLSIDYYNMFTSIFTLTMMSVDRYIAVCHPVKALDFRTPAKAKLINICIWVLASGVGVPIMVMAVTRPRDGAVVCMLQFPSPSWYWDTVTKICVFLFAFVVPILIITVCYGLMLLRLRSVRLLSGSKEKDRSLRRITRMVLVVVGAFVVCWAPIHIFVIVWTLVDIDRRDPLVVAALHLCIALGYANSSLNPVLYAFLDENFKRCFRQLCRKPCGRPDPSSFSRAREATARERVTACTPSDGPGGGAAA
Assay [5] concerns the target rat NK1 receptor (rat) (UniProt P14600). As to the kind of experiment: competition vs [3H]Substance P, rNK1 CHO cell membranes.
In assay [6] the target is rat µ opioid receptor (rat) (UniProt P33535). The experiment in a line: competition vs [3H]DAMGO, rMOR cell membranes.
In assay [7] the target is human NK1 receptor (human) (UniProt P25103). The experiment in a line: competition vs [3H]Substance P, hNK1 CHO cell membranes.
human NK1 receptor (human), sequence (P25103 whole entry): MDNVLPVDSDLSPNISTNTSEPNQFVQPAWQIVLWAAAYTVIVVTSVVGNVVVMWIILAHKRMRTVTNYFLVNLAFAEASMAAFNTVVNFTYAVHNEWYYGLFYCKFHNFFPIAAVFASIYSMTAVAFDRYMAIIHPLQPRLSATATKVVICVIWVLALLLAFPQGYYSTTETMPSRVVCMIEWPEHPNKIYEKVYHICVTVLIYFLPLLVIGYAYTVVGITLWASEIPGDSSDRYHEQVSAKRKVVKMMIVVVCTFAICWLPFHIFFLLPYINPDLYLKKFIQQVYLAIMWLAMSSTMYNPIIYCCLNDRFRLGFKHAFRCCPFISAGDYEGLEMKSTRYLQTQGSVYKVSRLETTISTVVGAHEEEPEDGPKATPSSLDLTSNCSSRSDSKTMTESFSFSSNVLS
Assay [8] deals with guinea pig NK1 receptor (guinea pig) (UniProt P30547). The experiment in a line: cell-based or functional assay.
guinea pig NK1 receptor (guinea pig), sequence (P30547 whole entry): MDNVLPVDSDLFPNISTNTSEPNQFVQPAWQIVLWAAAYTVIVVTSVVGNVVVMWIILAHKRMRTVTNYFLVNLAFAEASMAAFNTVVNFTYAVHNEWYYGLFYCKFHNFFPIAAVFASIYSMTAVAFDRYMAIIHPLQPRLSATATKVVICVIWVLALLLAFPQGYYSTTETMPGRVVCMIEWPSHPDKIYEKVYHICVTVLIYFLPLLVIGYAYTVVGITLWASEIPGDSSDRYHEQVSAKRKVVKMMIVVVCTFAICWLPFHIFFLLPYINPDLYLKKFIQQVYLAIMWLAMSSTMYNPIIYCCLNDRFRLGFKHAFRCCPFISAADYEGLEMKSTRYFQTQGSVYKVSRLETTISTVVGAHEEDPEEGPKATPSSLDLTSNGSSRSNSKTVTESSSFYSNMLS
In assay [9] the target is µ opioid receptor of the guinea pig isolated ileum (guinea pig) (UniProt P97266). The experiment in a line: cell-based or functional assay.
µ opioid receptor of the guinea pig isolated ileum (guinea pig), sequence (P97266 whole entry): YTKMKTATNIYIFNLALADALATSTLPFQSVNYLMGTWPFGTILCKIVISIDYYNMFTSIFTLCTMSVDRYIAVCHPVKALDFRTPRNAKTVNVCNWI
The target in assay [10] is rat µ opioid receptor (rat) (UniProt P33535). The experiment in a line: radioligand competition vs [3H]DAMGO, membranes of rMOR cells.
Assay [11] has as its target rat NK1 receptor (rat) (UniProt P14600). As to the kind of experiment: radioligand competition vs [3H]substance P, membranes of rNK1 CHO cells. A general note: Displacement assays read how much labelled ligand stays bound in the presence of the test substance.
The target in assay [12] is human NK1 receptor (human) (UniProt P25103). The experiment in a line: radioligand competition vs [3H]substance P, membranes of hNK1 CHO cells.
The target of assay [13] is human δ opioid receptor (human) (UniProt P41143). As to the kind of experiment: radioligand competition vs [3H]DPDPE, membranes of hDOR cells.
Assay [14] concerns the target rat µ opioid receptor (rat) (UniProt P33535). The experiment in a line: cell-based or functional assay. The source holds these as a separate data set.
For assay [15] the target is unchanged. The experiment in a line: radioligand saturation, rMOR membranes.
The target in assay [16] is human δ opioid receptor (human) (UniProt P41143). The experiment in a line: radioligand saturation, hDOR membranes.
Assay [17] has the same target. The experiment in a line: radioligand saturation, hDOR cell membranes.

One may read the Ki as a dissociation constant, usually derived from enzyme kinetics or from competition with a known ligand. Low values mean higher affinity, high ones lower affinity. Usually Kd stands for a measure of binding affinity in units of concentration. A low value points to tighter binding.

Like-named read-outs stand apart in the source and are kept apart here.

δ opioid receptor of the mouse isolated vas deferens (mouse), sequence (P32300 whole entry, stated change not applied): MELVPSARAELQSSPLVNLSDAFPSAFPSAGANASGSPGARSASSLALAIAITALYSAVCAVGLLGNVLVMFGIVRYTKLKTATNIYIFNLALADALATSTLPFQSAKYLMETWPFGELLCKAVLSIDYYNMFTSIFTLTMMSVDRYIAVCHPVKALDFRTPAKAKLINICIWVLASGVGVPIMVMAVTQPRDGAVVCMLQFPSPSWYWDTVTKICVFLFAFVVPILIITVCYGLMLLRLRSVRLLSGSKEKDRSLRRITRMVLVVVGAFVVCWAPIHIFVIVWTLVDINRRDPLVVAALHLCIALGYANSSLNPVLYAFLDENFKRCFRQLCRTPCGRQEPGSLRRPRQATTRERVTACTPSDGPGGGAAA
rat NK1 receptor (rat), sequence (P14600 whole entry): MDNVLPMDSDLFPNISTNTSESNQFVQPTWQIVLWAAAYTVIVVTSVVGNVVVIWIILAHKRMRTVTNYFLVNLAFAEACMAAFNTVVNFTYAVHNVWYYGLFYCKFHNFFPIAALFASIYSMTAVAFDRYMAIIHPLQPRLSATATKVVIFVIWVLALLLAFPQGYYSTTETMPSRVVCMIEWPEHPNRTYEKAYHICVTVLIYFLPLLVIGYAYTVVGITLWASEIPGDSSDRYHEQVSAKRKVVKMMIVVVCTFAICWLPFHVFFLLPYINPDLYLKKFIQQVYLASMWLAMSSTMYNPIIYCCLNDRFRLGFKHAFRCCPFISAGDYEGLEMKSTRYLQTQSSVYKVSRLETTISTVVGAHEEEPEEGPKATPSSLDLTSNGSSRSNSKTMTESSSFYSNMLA

In assay [1], Biphalin (peptide) showed an MVD (δ) IC50 of 2.7 nM and an MVD (δ) opioid agonist IC50 of 2.7 nM.

The substance “DMT-D-Ala-Trp-O-3′,5′(CF3)2-Bzl (NP48) (peptide)” had an MVD δ-agonist IC50 in assay [1] of 408 nM.

On to “DMT-D-Ala-Trp-O-3′,5′(CF3)2-Bzl (peptide)”, for which the figures for the GTP EC50 in [2] and in assay [3] were 11.5 nM and 1.6 nM, respectively. Moreover, the Ki in assay [4] came out at 0.8 nM; with rat NK1 receptor (rat) [5], 0.28 nM; in [6] it was 0.3 nM; in assay [7] it was 0.016 nM.

Consider “Tyr-D-Ala-Gly-pFPhe-O-3′,5′(CF3)2-Bzl (NP62) (peptide)”, for which the GPI SP-antagonist Ke in assay [8] came out at 51.8 nM. The substance also had an MVD δ-agonist IC50 in [1] of 184 nM.

In assay [8], “Tyr-D-Ala-Trp-O-3′,5′(CF3)2-Bzl (NP43) (peptide)” returned a GPI SP-antagonist Ke of 49.4 nM. Further, in assay [1], the MVD δ-agonist IC50 was determined as 5.5 % at 1 µM. This substance also showed a GPI µ-agonist IC50 in [9] of 3.3 % at 1 µM.

For the substance “Tyr-D-Ala-Trp-O-3′,5′(CF3)2-Bzl (peptide)”, the results for the GTP EC50 in [2] and in assay [3] were 90.9 nM and 168 nM, respectively. The Ki came out at 100 nM in [4], 2.94 nM in the assay with rat NK1 receptor (rat) [5], 178 nM in [6] and 0.004 nM in assay [7].

The substance “Tyr-Gly-Trp-O-3′,5′(CF3)2-Bzl (NP42) (peptide)” yielded a GPI µ-agonist IC50 in [9] of 2.6 % at 1 µM.

Consider Tyr-Gly-Trp-O-3′,5′(CF3)2-Bzl (peptide), for which the figures for the Ki (in the assay with rat NK1 receptor (rat) [5]; in assay [7]) were 0.36 nM and 0.003 nM, respectively.

Regarding “TyrDAlaGlyPheMetCLeuLeuTrpOBn(CF3)2 (TY021) (peptide)”, in assay [2], the GTP binding hDOR EC50 amounted to 0.26 nM. For the same substance, in assay [2], the GTP binding hDOR Emax is 41.1%. Moreover, the GTP binding rMOR EC50 in [3] stood at 53.8 nM. The substance also displayed a GTP binding rMOR Emax in assay [3] of 51.4%. Also, the inhibition constant Ki in assay [10] turned out to be 112 nM; in the assay with rat NK1 receptor (rat) [11], 7.75 nM; in assay [12], 0.066 nM; in assay [13] it was 5 nM.

In assay [2], “Tyr[DCysGlyPheDCys]ProLeuTrpNHBn(CF3)2 (TY037) (peptide)” returned a GTP binding hDOR EC50 of 98.2 nM and a GTP binding hDOR Emax of 26%. In assay [3], this substance gave a GTP binding rMOR EC50 of 52.9 nM and a GTP binding rMOR Emax of 8%. This substance also returned a Ki in assay [10] of 51.5 nM. Besides, the Ki in the assay with rat NK1 receptor (rat) [11] amounted to 45.5 nM. The same substance came in with a Ki in assay [13] of 7.8 nM.

In assay [3], “[3H]-[D-Ala2,NMePhe4,Gly5-ol]enkephalin (peptide)” had a [35S]GTP-γ-S binding EC50 of 37 nM, a [35S]GTP-γ-S binding Emax of 150%, a [35S]GTP-γ-S binding LogEC50 of -7.4 and a [35S]GTPγS binding EC50 of 37 nM. Besides, in assay [3], the [35S]GTPγS binding Emax stood at 150% and the [35S]GTPγS binding LogEC50 is -7.4. This substance registered a [35S]GTP-γ-S binding LogEC50 in assay [14] of -7.44. This substance yielded a Kd in assay [15] of 0.5 nM.

In assay [2], “[3H]-c[D-Pen2,D-Pen5]enkephalin (peptide)” gave a [35S]GTP-γ-S binding EC50 of 1.6 nM, a [35S]GTP-γ-S binding Emax of 69%, a [35S]GTP-γ-S binding LogEC50 of -8.8 and a [35S]GTPγS binding EC50 of 1.6 nM. In assay [2], this substance displayed a [35S]GTPγS binding Emax of 69% and a [35S]GTPγS binding LogEC50 of -8.8. Further, the Kd in assay [16] was determined as 0.45 nM.

c[D-Pen2,D-Pen5]enkephalin (peptide) returned a Kd in [17] of 0.45 nM.
